Article PMC5340040

What was measured:
[1] = molecular target: MgF-actin (rabbit skeletal muscle actin, filament) (rabbit) (UniProt P68135)
[2] = molecular target: MgF-actin (rabbit skeletal muscle actin, filament) (rabbit) (UniProt P68135); remark: listed apart in the source
[3] = molecular target: MgF-actin (rabbit skeletal muscle actin, filament) (rabbit) (UniProt P68135); remark: listed apart in the source

Chain of Histatin-3 (peptide) (P15516 20-51): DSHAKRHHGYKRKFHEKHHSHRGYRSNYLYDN

Histatin-3 (peptide)
NaCl concentration (0-200 mM) at which bundles of 4 μM F-actin induced by 16 μM histatin are largely dissociated (low speed centrifugation) [1]: 100 mM
bundling of 8 μM F-actin (low speed centrifugation): histatin concentration for 50% bundling [2]: 5 µM
decrease of the fluorescence emission at 581 nm of 5 μM TRC-F-actin (TRC on Gln41) by 8 μM histatin-3 [3]: 22.3%
